According to PMC4979867, “Reconstitution of the membrane protein OmpF into biomimetic block copolymer–phospholipid hybrid membranes” (Beilstein Journal of Nanotechnology, 2016):

Target: the molecule itself
Assay: SDS-PAGE of the unboiled sample; purified OmpF in 1% octyl-POE, sample not boiled before SDS-PAGE

B1: outer membrane protein OmpF from Escherichia coli (natural protein, UniProt P02931 23-362, looked up)
chain: AEIYNKDGNKVDLYGKAVGLHYFSKGNGENSYGGNGDMTYARLGFKGETQINSDLTGYGQWEYNFQGNNSEGADAQTGNKTRLAFAGLKYADVGSFDYGRNYGVVYDALGYTDMLPEFGGDTAYSDDFFVGRVGGVATYRNSNFFGLVDGLNFAVQYLGKNERDTARRSNGDGVGGSISYEYEGFGIVGAYGAADRTNLQEAQPLGNGKKAEQWATGLKYDANNIYLAANYGETRNATPITNKFTNTSGFANKTQDVLLVAQYQFDFGLRPSIAYTKSKAKDVEGIGDVDLVNYFEVGATYYFNKNMSTYVDYIINQIDSDNKLGVGSDDTVAVGIVYQF
notes: Outer membrane porin OmpF, Escherichia coli, native protein from strain B^E BL21(DE3)omp6 (lacks LamB and OmpC); no residues or identifiers printed; The protein here comes from an E. coli B strain, whose OmpF may differ from it at a few positions; also called native OmpF protein
  stoichiometry N: 3
